Source: patent publication US10220090B2, “BCMA Antigen binding proteins” (Amgen Inc., priority 2012, dated 2019)

What was measured:
various cell lines = assay: Cell viability of various cell lines exposed to free DM1; assay type: cell-based; conditions: control
Protocol: The ADCs were tested for the ability to target and kill BCMA-expressing myeloma cells. The CellTiter-Glo® Luminescent Cell Viability Assay is a homogeneous method to determine the number of viable cells in culture based on quantitation of the ATP present, which signals the presence of metabolically active cells. The CellTiter-Glo® Assay is applicable to cytotoxicity assays (see http://www.promega.com/products/cell-health-assays/cell-viability-assays/celltiter_glo-luminescent-cell-viability-assay/for more information). The cell viability assay was used to assess the relative killing capacity of various ADCs on various multiple myeloma cell lines and B-cell lines. The protocol provided in the Cell Titer-Glo kit (Promega G7572) was followed. In short, 5×10^3 target cells in 90 ul RPMI 1640, 10% FBS were aliquoted into clear, flat bottom, white walled 96 well plates (Costar #3903). The ADCs were diluted into a 10× stock to create 500 nM maytansine drug equivalents. Each ADC was serially diluted in 2-fold dilutions in RPMI 1640, 10% FBS starting with 500 nM stock. […] Luminescence was read on an EnVision™ Multilabel reader (PerkinElmer) or Analyst HT plate reader (LJL Biosciences). The data was analyzed and graphed using GraphPad Prism™ to determine the relative efficacy of the ADCs on various cancer cell lines. […]

[1] = target: [6xHistidine-SUMO]-huBCMA (SEQ ID NO:350) and its carboxy terminal clipped forms (Homo sapiens, UniProt Q02223); assay: Size exclusion chromatography and LC/MS of antibody complexes with Sumo-huBCMA and clipped forms; assay type: binding; conditions: SEC and LC/MS; listed as 29C12
Chain of [6xHistidine-SUMO]-huBCMA (SEQ ID NO:350) and its carboxy terminal clipped forms (Q02223 with tags, fused parts or gaps limits assumed): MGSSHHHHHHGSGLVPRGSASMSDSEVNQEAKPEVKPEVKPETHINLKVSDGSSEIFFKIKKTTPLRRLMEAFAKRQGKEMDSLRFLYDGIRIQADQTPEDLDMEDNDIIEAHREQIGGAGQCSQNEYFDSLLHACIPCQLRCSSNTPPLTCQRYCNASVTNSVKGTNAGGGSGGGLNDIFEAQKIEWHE
Description: To determine which forms of 6×His-SUMO-huBCMA were bound to the anti-huBCMA antibodies, the SEC fractions were isolated and analyzed. Carboxy-terminus fragments of the extracellular domain of human BCMA were generated as clipped forms from the rhuBCMA fusion protein (6×His::Sumo::huBCMA(aa 5-51)::GGS::G3::Avi) of SEQ ID NO:350, as shown in FIG. 45.
A Superdex 200™ 10/30 cm SEC column (GE Healthcare Life Sciences) was used according to the manufacturer's recommendations and run in phosphate buffered saline (PBS). Incubations of antibody with excess levels of sumoBCMA were performed at room temperature for at least 30 minutes.
(§1) A Superdex 200™ 10/30 cm SEC column (GE Healthcare Life Sciences) was used according to the manufacturer's recommended condision and run in phosphate buffered saline (PBS). Incubations of antibody with excess levels of sumoBCMA were performed at room temperature for at least 30 minutes.
5 ug of total proteins were reduced in 50 mM Tris/4 M guanidine/9 mM DTT, pH 8.0 at 55° C. for 15 min, and analyzed in Agilent LCTOF system using a Vydac C8 column, 2.1 mm ID×150 mm, […] particle size. […] TOF MS conditions included capillary voltage of 4000 V, drying gas flow at 10 L/min, dry gas temperature at 300° C., nebulizer gas flow at 40 L/min, and fragmentor voltage of 300 V. MS data was analyzed in Agilent MassHunter™ Qualitative Analysis program.

[2] = target: T1, Sumo (cleaved from SumoBCMA) (Saccharomyces cerevisiae, UniProt Q12306); assay: Size exclusion chromatography control with Sumo; assay type: binding; conditions: SEC control
T1 construct: 6xHis (N)
T1 sequence (Q12306 1-98 limits assumed): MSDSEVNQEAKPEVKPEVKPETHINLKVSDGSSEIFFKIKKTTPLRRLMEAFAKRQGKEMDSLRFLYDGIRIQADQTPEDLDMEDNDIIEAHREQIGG
Protocol: as §1

TACI = target: T2, TACI (Homo sapiens, UniProt O14836); assay: FACS binding on cells transiently transfected to express full length TACI
T2 construct: expressed in transfected cells
T2 sequence (O14836 1-293): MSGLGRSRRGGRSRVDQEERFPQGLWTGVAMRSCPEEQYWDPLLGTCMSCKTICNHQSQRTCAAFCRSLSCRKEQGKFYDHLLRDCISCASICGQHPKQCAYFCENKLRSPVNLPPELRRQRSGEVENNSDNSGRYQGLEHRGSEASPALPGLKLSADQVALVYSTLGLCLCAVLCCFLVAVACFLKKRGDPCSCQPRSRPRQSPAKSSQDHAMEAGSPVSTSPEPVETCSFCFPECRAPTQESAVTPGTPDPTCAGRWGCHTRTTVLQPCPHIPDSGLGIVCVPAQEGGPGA
Protocol: (§2) An important criterion is exquisite selectivity for wild-type human BCMA expressed on the surface of cells. FACS binding on cells transiently transfected to express full length BCMA, TACI, or BAFF-R was performed using standard techniques. Approximately 40×10^6 of the transiently-transfected target cells were resuspended in a staining solution (2% goat serum, 1% rabbit serum, 0.02% azide in PBS) and aliquoted into round-bottom, 96-well plate (Corning Incorp., Acton, Mass.) as per the experiment design. The cells were incubated at 4 degrees celsius for 30 minutes to block non-specific sites. The antibodies were titrated into the staining solution. The cells were rinsed in a rinse solution (PBS+0.02% azide) by resuspending the cells in 200 ul/well. The cells were centrifuged at 1500 rpm at 4 degrees celsius for 7 minutes. The rinse solution was removed and the rinse step was repeated. The cells were resuspended in the appropriate antibody solution (see the matrix in TABLE 4) at 30 ul/well and incubated at 4 degrees celsius for 30 minutes. […] For the mouse IgG1 negative control and the two mouse antibodies (1.183 and 1.288), the secondary reagent was an anti-mouse IgG-PE conjugate (BD Pharmingen Cat. 550589). The cells/antibodies were rinsed as described above to remove excess/unbound antibody. […] Samples were read at 532 nm wavelength on FACS. […]

human BCMA = target: T3, human BCMA (Homo sapiens, UniProt Q02223, N81S); assay: FACS binding on cells transiently transfected to express full length BCMA
T3 construct: expressed in transfected cells
T3 sequence (Q02223 1-184 N81S): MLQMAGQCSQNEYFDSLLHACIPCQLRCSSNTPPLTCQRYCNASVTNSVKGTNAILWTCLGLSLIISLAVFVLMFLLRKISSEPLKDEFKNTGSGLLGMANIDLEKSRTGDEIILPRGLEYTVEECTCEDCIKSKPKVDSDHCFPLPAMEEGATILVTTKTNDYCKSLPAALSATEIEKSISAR
Protocol: as §2

## COc1cc2cc(c1Cl)N(C)C(=O)C[C@H](OC(=O)[C@H](C)N(C)C(=O)CCS)[C@]1(C)O[C@H]1[C@H](C)[C@@H]1C[C@@](O)(NC(=O)O1)[C@H](OC)/C=C/C=C(\C)C2 [DM1]
Various cell lines
  killing by free DM1: killed by free DM1

B1: Ab-8: anti-huBCMA mAb of the second campaign, Vh SEQ ID NO:220, Vl SEQ ID NO:254 (antibody, V domains shown)
VH: EVQLLESGGALVQPGGSLRLSCAASGFTFSSYAMNWVRQAPGKGLEWVSAISVGGDTYYADSVKGRFTISRDNSKNTLYLQMNSLRAEDTAVYYCAKDQVTMVRGVWYYYGLDVWGQGTTVTVSS
VL: DIVMIQSPLSLPVTPGEPASISCRSSQSLLHSNGNNYLDWYLQKPGQSPHLLISLGSNRTSGVPDRFSGSGSGTDFTLKISRVEAEDVGVYYCMQALQPPRRFGQGTKLEIKR
[1]
  binding to full-length and truncated fragments of human BCMA: bound full-length and truncated forms of BCMA
[2]
  binding to Sumo: did not bind to Sumo

B2: Ab-6: anti-huBCMA mAb, Vh SEQ ID NO:216, Vl SEQ ID NO:250 (antibody, V domains shown)
VH: QVQLVESGGGVVQPGRSLRLSCAASGFTFSSYGLHWVRQAPGKGLEWVALISYDGSNKYYADSVKGRFTISRDNSKNTLYLQMNSLRAEDTAVYYCWYSSSWTPLDYWGQGTLVTVSS
VL: DIQMTQSPSSLSASVGDRVTITCRASQGIRNDLGWYQQKPGKAPKRLIYAASSLQSGVPSRFSGSGSGTEFTLTISSLQPEDFATYYCLQYYSYPLTFGGGTKVEIKR
TACI
  TACI (FACS binding): + (A sample was considered positive for binding if the MFI was two times the negative control value)
Human BCMA
  BCMA (FACS binding): + (A sample was considered positive for binding if the MFI was two times the negative control value)
